In IntAct's records for PubMed 14668441:

Molecular target: arnt_human ARNT (UniProt P27540)

effect of a mutation on the interaction: disrupting interaction strength
Substance: Endothelial PAS domain-containing protein 1 (Homo sapiens), Q99814 Q322E;M338E;Y342T
